Patent publication WO2011083140A1 (dated 2011)
Values joined by “and” are separate entries in the source; they are usually repeats but may differ in a detail not shown here. Equal values may be shown once.

B1: 4CXCR010E09 (VHH)
VHH: EVQLVESGGGLVQTGGSLRLSCAASGRTFSSYAMGWFRRAPGKEREFVATISWRGDRKYYSESVKDRFTIARGRSNKNAVYLQMNSLKPEDTAVYYCAKDRAPYGSGSPDVKQYEHWGQGTQVTVSS
notes: Monovalent Nanobody from E. coli; also called 10E9; P4CXCR10E09; not shown: C-terminal c-myc tag and His6 tag
B2: 4CXCR015A01 (VHH, not shown: small tags and cut ends)
VHH: EVQLVESGGGLVQAGGSLRLSCAASGRTFSRAAMGWFRQAPGKEREFVGCALSSAGSALTADSVKGRFTISRDNAKNMVYLQMNNLKPEDTAVYSCVAGGYCTRAGVYPYWGQGTQVTVSS
notes: also called 15A1; P4CXCR15A01
B3: 4CXCR010E12 (VHH)
VHH: EVQLVESGGGLVQAGGSLRLSCAVSGRTFTSYDMAWFRQAPGKERESVAAIRWTGSSTYYADSVKGRFTISRDNAKSTVYLQMNSLKPEDTAVYYCAARDTGRYRSRTYDYWGQGTQVTVSS
notes: also called P4CXCR10E12; not shown: C-terminal c-myc tag and His6 tag
B4: 4CXCR010G10 (VHH)
VHH: EVQLVESGGGLVQAGGSLRLSCAASGRTFNSYAMAWFRQAPGKERENVAAIRWSGGRATKYADSVRGRFTISKDNAKNTVYLQMSSLKPEDTAVYYCATQTYYRSGLASTRDFDSWGQGTQVTVSS
modifications: Alexa-647 label in the competition FACS of D-2
notes: also called P4CXCR10G10; not shown: C-terminal c-myc tag and His6 tag
B5: 4CXCR015H03 (VHH)
VHH: EVQLVESGGGSVQTGGSLRVSCAASGLSFNTYTMGWLRQAPGKEREFVAVINWNGDRTNYADSVKGRFSVSRDNAKNTVFLQMNSLRPEDTAVYYCAARPRFTAEPMTSRRYQYWGRGTQVTVSS
notes: also called 15H3; P4CXCR15H3; not shown: C-terminal c-myc tag and His6 tag
B6: 4CXCR014A02 (VHH)
VHH: EVQLVESGGGLVQAGGSLRLSCVASGISSSIRNMGWYRQAPGKQRESVATISSGGNKDYTDAVKDRFTISRDTTKNTVYLQMSSLKPEDTAVYYCKIEAGTGWATRRGYTYWGQGTQVTVSS
notes: also called 14A2; not shown: C-terminal c-myc tag and His6 tag
B7: 4CXCR281E10 (VHH)
VHH: EVQLVESGGGLVQAGGSLRLSCKASGGTFNNYAMGWFRRAPGKEREFVAAITRSGVRSGVSAIYGDSVKDRFTISRDNVKNTLYLQMNTLKPEDTAVYTCAASAIGSGALRRFEYDYSGQGTQVTVSS
notes: Family member of 238D4 (family 17); also called P4CXCR281E10; not shown: C-terminal c-myc tag and His6 tag

What was measured:
[1] = biological target: T1, human CXCR4 (human, UniProt P61073 1-352); experiment: cell-based or functional assay
[2] = biological target: T1, human CXCR4; experiment: binding to CXCR4 VLP, Table C-3
[3] = biological target: T1, human CXCR4; experiment: binding to Caki-CXCR4 cells, Table C-3
[4] = biological target: T1, human CXCR4; experiment: SDF-1 displacement (competition with SDF-1 for CXCR4), Table C-3
[5] = biological target: T2, mouse CXCR4 (mouse, UniProt P70658 1-359); experiment: binding FACS on murine BaF-3 cells, anti-myc detection
T2 construct: whole, on cells; also called mCXCR4

[6] = biological target: T3, CXCR4 V196E (human, UniProt P61073 1-352); experiment: flow cytometry on transiently transfected HEK293T cells, Myc-tag detection
T3 construct: whole, on cells

[7] = biological target: T4, CXCR4 D187V (human, UniProt P61073 1-352); experiment: as above
T4 construct: whole, on cells; Printed as Dl 87V in this copy

[8] = biological target: T5, CXCR4 F189V (human, UniProt P61073 1-352); experiment: as above
T5 construct: whole, on cells
T5 sequence (P61073 whole entry F189V): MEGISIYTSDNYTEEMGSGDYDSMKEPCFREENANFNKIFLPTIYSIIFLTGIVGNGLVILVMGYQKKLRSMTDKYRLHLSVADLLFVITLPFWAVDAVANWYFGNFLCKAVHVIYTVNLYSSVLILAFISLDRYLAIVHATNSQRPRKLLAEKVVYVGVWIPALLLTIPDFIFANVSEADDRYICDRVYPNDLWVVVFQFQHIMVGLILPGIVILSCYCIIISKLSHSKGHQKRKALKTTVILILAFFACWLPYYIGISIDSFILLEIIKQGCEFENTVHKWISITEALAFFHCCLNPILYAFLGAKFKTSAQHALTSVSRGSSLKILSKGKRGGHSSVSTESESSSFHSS

T1 sequence (P61073 whole entry): as the sequence (P61073 whole entry F189V) above, with V189F counted along it
T2 sequence (P70658 whole entry): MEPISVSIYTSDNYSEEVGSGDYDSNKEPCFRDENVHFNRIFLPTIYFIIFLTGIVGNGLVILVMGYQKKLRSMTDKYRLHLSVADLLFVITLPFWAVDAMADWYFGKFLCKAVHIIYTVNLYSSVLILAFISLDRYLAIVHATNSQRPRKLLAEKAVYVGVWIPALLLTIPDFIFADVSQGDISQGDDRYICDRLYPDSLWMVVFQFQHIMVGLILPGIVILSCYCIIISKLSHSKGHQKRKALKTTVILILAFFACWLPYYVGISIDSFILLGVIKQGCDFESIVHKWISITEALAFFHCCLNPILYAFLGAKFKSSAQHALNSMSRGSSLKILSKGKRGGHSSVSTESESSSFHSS
T3 sequence (P61073 whole entry V196E): as the sequence (P61073 whole entry F189V) above, with V189F, V196E counted along it
T4 sequence (P61073 whole entry D187V): as the sequence (P61073 whole entry F189V) above, with D187V, V189F counted along it

Binder	Chemotaxis IC50 (M) +HSA [1]	Chemotaxis IC50 (M) -HSA [1]	Chemotaxis IC50 (nM) Jurkat [1]	EC50 [2]	EC50 [3]	IC50 [4]	binding result [5]	Chemotaxis Jurkat cells IC50 (M) n=1 [1]	Chemotaxis Jurkat cells IC50 (M) n=2 [1]	Chemotaxis Jurkat cells IC50 (M) n=3 [1]	cAMP inhibition assay IC50 (M) n=1 [1]	cAMP inhibition assay IC50 (M) n=2 [1]	binding result [6]	binding result [7]	binding result [8]
B1	1.93e-09 M	3.29e-09 M	3.5 nM and 1.2 nM	0.52 nM	2.4 nM	4.7 nM									
B2	1.18e-09 M	1.7e-09 M		0.2 nM		5.1 nM									
B3	1.12e-09 M	2.78e-09 M	3.5 nM and 1.4 nM	0.22 nM		3 nM	no binding								
B4	7.74e-10 M	4.11e-09 M	2.1 nM and 2.3 nM	0.29 nM	3.3 nM	7.9 nM	no binding	2.1e-09 M	2.3e-09 M	4.1e-09 M	1.6e-07 M	9.6e-07 M			
B5													binds	binds	binds
B6				0.73 nM	4 nM	4.1 nM		3.3e-09 M	8.1e-10 M		4e-07 M	2.5e-06 M			
B7	2.2e-09 M	2.08e-09 M	3.5 nM and 4.7 nM		3.1 nM	3.1 nM									
